Measurements published in patent publication US20050095604A1 (published 2005).

Target: T1, endogenous beta-catenin of human HEK293 cells (human, UniProt P35222 2-781)
T1 construct: also called β-catenin
T1 sequence (looked up): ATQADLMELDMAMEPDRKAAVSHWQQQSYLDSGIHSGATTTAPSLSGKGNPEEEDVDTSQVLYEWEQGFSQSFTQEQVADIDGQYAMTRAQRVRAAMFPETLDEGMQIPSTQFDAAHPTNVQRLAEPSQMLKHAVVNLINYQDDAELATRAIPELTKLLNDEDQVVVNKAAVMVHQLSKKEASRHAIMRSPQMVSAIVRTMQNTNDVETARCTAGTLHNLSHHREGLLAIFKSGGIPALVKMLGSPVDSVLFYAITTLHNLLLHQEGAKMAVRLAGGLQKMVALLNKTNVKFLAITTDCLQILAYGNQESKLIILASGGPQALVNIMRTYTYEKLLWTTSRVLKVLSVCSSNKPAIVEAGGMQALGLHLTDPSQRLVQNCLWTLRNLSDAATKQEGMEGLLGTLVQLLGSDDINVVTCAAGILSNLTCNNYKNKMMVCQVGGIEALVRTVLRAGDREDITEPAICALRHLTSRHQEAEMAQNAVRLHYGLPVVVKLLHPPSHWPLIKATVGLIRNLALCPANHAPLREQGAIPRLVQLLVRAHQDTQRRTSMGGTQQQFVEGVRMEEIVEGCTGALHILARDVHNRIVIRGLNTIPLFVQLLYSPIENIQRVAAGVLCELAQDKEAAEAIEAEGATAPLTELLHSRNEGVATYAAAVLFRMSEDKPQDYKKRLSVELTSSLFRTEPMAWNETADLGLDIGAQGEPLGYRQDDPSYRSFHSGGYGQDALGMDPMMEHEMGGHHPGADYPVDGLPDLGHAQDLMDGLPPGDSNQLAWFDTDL
Test: Talon cobalt-affinity isolation of His-tagged hPSF from 1% CHAPSO lysates of stable HEK293 cells, Western blot

binding result: no binding
B1: human presenilin stabilization factor (PSF) with C-terminal V5 and poly-histidine (6xHis) tags (other, not shown: small tags and cut ends)
chain: MGAAVFFGCTFVAFGPAFALFLITVAGDPLRVIILVAGAFFWLVSLLLASVVWFILVHVTDRSDARLQYGLLIFGAAVSVLLQEVFRFAYYKLLKKADEGLASLSEDGRSPISIRQMAYVSGLSFGIISGVFSVINILADALGPGVVGIHGDSPYYFLTSAFLTAAIILLHTFWGVVFFDACERRRYWALGLVVGSHLLTSGLTFLNPWYEASLLPIYAVTVSMGLWAFITAGGSLRSIQRSSCVRTDYLD
notes: Stably expressed in HEK293 (APP-695) cells (clonal line 2-7), solubilised in 1% CHAPSO and captured on Talon cobalt resin; Both the full-length (~25 kDa) and the processed (~15 kDa) forms were isolated; also called hPSF; PSF-V5
